Laboratory results reported in patent publication US20260043816A1 (AC IMMUNE, published 2026).
Square brackets hold non-standard residues; d marks the D form. Ends that are not written are not given here. * marks the point of attachment. Biotin = O=C1N[C@H]2[C@H](CS[C@H]2CCCCC(=O)*)N1; pS = N[C@@H](COP(=O)(O)O)C(=O)O

T1: Peptide 28 (human, phosphoserine at pS403 and pS404 (human TDP-43 numbering, in the SEQ ID NO: 8 part); Trioxatridecan-succinamic acid (Ttds) linker between SEQ ID NO: 7 and SEQ ID NO: 8)
T1 peptide: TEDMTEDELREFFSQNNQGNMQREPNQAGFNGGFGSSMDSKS

T2: Peptide 29 (human, phosphoserine at pS409 and pS410 (human TDP-43 numbering, in the SEQ ID NO: 9 part); Trioxatridecan-succinamic acid (Ttds) linker between SEQ ID NO: 7 and SEQ ID NO: 9)
T2 peptide: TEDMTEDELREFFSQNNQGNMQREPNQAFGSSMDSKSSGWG

T3: TDP-43 peptide consisting of amino acid sequence (SEQ ID NO: 5) (comprising pS375 and pS379) (human)
T3 construct: also called target peptide
T3 peptide: GNNSY[pS]GSN[pS]GAAIG

T4: biotinylated TDP-43 phospho peptide 396-409 (pS403 and pS404) (human, phosphoserine at 403 and 404 (SEQ ID NO: 1 numbering); biotin on the N-terminus)
T4 peptide: GFNGGFGSSMDSKS

T5: biotinylated non-phosphorylated TDP-43 peptide 366-414 (human, biotin on the N-terminus)
T5 peptide: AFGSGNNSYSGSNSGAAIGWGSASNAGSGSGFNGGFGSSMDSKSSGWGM

T6: biotinylated TDP-43 phospho peptide 396-409 (pS403) (human, phosphoserine at 403 (SEQ ID NO: 1 numbering); biotin on the N-terminus)
T6 peptide: GFNGGFGSSMDSKS

T7: biotinylated TDP-43 phospho peptide 401-413 (pS409 and pS410) (human)
T7 peptide: Biotin-FGSSMDSK[pS][pS]GWG

T8: biotinylated TDP-43 phospho peptide 401-413 (pS410) (human)
T8 peptide: Biotin-FGSSMDSKS[pS]GWG

T9: biotinylated TDP-43 phospho peptide 396-409 (pS404) (human)
T9 peptide: Biotin-GFNGGFGS[pS]MDSKS

T10: biotinylated TDP-43 phospho peptide 401-413 (pS409) (human)
T10 peptide: Biotin-FGSSMDSK[pS]SGWG


What was measured:
[1] = molecular target: T11, recombinant full length TDP-43 (SEQ ID NO: 1, FL TDP-43) (human, UniProt Q13148 1-414); test: pairing sandwich ELISA, antibody coated as capture, FL TDP-43 titrated
T11 construct: also called recombinant human soluble FL TDP-43; soluble human TDP-43
Description: (§1) The capacity of antibodies to bind phospho TDP-43 and TDP-43 was determined using a sandwich enzyme-linked immunosorbent assay (ELISA), where each antibody was paired with a second TDP-43 antibody previously characterized for TDP-43 binding and performance in sandwich immunoassays, ACI-7071-809F12-Ab1-rec2 (as described in WO2020234473) or ACI-7069-636E5-Ab1 (as described in WO2020234473). ELISA plates (Nunc™ Edge™ 96-Well, Non-Treated, Flat-Bottom Microplate, ThermoFisher Scientific, Denmark) were coated with 5 μg/mL of anti-phospho TDP-43 or anti-TDP-43 antibodies in carbo/bicarbonate buffer, overnight at 4° C. Plates were then washed with 0.05% Tween-20/PBS and blocked with 1% bovine serum albumin (BSA) in 0.05% Tween-20/PBS for 1 hour at 37° C. The plates were then washed again as described above.
Serial-dilutions of target peptide or protein were then added to the plates. For assays with anti-phospho TDP-43 antibodies, one of four peptide conjugates (peptides 11, 23, 28, or 29) each composed of two TDP-43 sequences, one phosphorylated and one non-phosphorylated, conjugated together with a Trioxatridecan-succinamic acid linker (Ttds, binding regions and sequences shown in Table 4) were used. Peptides 11, 23, 28, and 29 were added in a 10-fold serial dilution starting at 0.5 μM. For assays with TDP-43 antibodies only, recombinant full length TDP-43 (SEQ ID NO: 1, FL TDP-43) was diluted 3-fold from 21.9 pM. Plates were incubated for 1 hour at 37° C., and then washed. […] PEG-biotinylated phospho TDP-43 or TDP-43 antibodies were then respectively added to the wells and incubated for 1 hour at 37° C., after which the plates were washed. Horseradish peroxidase (HRP)-conjugated streptavidin (R&D Systems, Switzerland) was added at 1/200 dilution in 1% BSA and 0.05% Tween-20/PBS for 45 min at room temperature. […] The plate was read at 450 nm using an ELISA plate reader (Tecan, Switzerland).

Peptide 28 = molecular target: T1, Peptide 28; test: SPR Biacore 8K, antibody captured, peptide analyte, single-cycle kinetics, 1:1 fit
Description: (§2) Each cycle started with the non-covalent capture of the antibody which were diluted in running buffer to a final concentration of 5 μg/mL and injected for 120 sec with a flow rate of 10 μL/min. Antibodies being measured were captured in channels […], leaving Fc 1 as a blank Fc. Capture levels were evaluated following a 120 sec stabilization period after each antibody injection. ACI-7071-809F12-Ab1-rec2 was used as control, binding to the non-phosphorylated sequences represented in peptides 28 and 29.
(§3) Injections of peptides 28 or 29 were performed using single-cycle kinetics with increasing concentrations ranging from 1.2 to 100 nM prepared as a 3-fold serial dilution. Injections were performed with contact times of 300 sec/injection at a flow rate of 30 μL/min. A dissociation phase of 900 sec followed the final injection. Sensor surface was regenerated by two injection of 10 mM Glycine-HCl pH 1.7 at a flow rate of 10 μL/min for 60 sec, followed by a stabilization period of 120 sec. Results obtained from single-cycle kinetics were double-referenced using the blank Fc 1 and buffer cycles and evaluated by Biacore 8K evaluation software (Cytiva). The following kinetic parameters were obtained using the 1:1 binding fit model with variable Reflective Index (RI): association rate constant (ka), dissociation rate constant (kd), affinity constant (KD) and saturation response (Rmax).

Peptide 29 = molecular target: T2, Peptide 29; test: as above
Description: as §2, §3

[2] = molecular target: T3, TDP-43 peptide consisting of amino acid …; test: SPR, antibody on chip, peptide analyte
Description: For antibodies ACI-8070-942.30D12-Ab1 and ACI-7071-809F12-Ab1-rec2 affinity was measured on Biacore 5200 instrument (Cytiva, Switzerland). The instrument was primed with running buffer HBS-P+ (10× HBS-P+ diluted to 1× in Milli-Q water) and flow-cells (Fc) 1-4 of a CM7 Series S sensor chip (Cytiva, 29147020) were activated with a fresh solution of EDC/NHS (Amine Coupling Kit type 2, BR100633, Cytiva) 1:1 ratio of both reagents at 10 μL/min for 420 sec and polyclonal rabbit anti-mouse IgG antibody (Cytiva, 29215281) was immobilized at […] in 10 mM sodium acetate pH 5.0 for 420 sec. Next, all Fc were quenched with 1 M ethanolamine (Cytiva, BR100633) for 420 sec. Immobilization levels were evaluated following ethanolamine quenching. A mouse IgG2a isotype control antibody and ACI-8070-942.30D12-Ab1 were captured on Fc 1 and Fc 2, respectively. Antibodies were diluted in 10 mM sodium acetate pH5.5 to a final concentration of 50 μg/mL and injected using the aim immobilization level functionality with a target of 10000 RU. […] Results obtained from single-cycle kinetics were double-referenced using the blank Fc 1 and buffer cycles and evaluated using the Biacore Insight Evaluation software (Cytiva). […]

[3] = molecular target: T11, recombinant full length TDP-43 (SEQ ID …); test: SPR Biacore T200, FL TDP-43 immobilized, antibody analyte (avidity), 1:1 fit
Description: Binding avidity of ACI-7071-4665-B5-R3B-Ab2 to soluble FL TDP-43 was evaluated by determining the KD value using SPR (Biacore T200, GE Healthcare Life Sciences). Recombinant human soluble FL TDP-43 was immobilized on a CM5 Series S sensor chip (GE Healthcare Life Sciences) by amine coupling. Soluble TDP-43 was immobilized at a concentration of 5 μg/ml in 10 mM sodium acetate (pH 4.5) with a flow rate of 5 μl/min for 420 seconds resulting in an immobilization level of 150 RU. […] Antibodies were injected at a flow rate of […] for 90 seconds contact time and 700 seconds dissociation phase followed by three regenerations with 10 mM glycine-HCl (pH 1.7). For the optimized SPR protocol the antibodies were diluted 3-fold starting from 300 nM and dilute down to 1.2 nM and injected for 300 seconds at 30 μL/min followed by 600 seconds of dissociation. The chip surface was regenerated by one injection with 10 mM glycine-HCl (pH 1.7). Results obtained from binding kinetics were double referenced using a blank flow cell and a buffer cycle, and were evaluated with a global 1:1 fitting model with RI.

[4] = molecular target: T11, recombinant full length TDP-43 (SEQ ID …); test: pairing sandwich ELISA, biotinylated antibody as detector, FL TDP-43 titrated
Description: as §1
Serial-dilutions of target peptide or protein were then added to the plates. For assays with anti-phospho TDP-43 antibodies, one of four peptide conjugates (peptides 11, 23, 28, or 29) each composed of two TDP-43 sequences, one phosphorylated and one non-phosphorylated, conjugated together with a Trioxatridecan-succinamic acid linker (Ttds, binding regions and sequences shown in Table 4) were used. Peptides 11, 23, 28, and 29 were added in a 10-fold serial dilution starting at 0.5 μM. […] The plate was read at 450 nm using an ELISA plate reader (Tecan, Switzerland).

[5] = molecular target: T4, biotinylated TDP-43 phospho peptide …; test: capture ELISA, antibody on anti-mouse IgG, biotinylated peptide
Description: (§4) Briefly, for capture detection in ELISA, wells of 96-well plates were coated with 5 μg/mL goat anti-mouse IgG (Fc gamma fragment specific), in carbonate buffer, overnight at 4° C. Plates were then washed with 0.05% Tween-20/PBS and blocked with 1% bovine serum albumin (BSA) in 0.05% Tween-20/PBS for 1 hour at 37° C. Phospho TDP-43 antibodies were then added at 5 μg/mL and incubated for 2 hours at 37° C. after which the plates were washed as described above. Biotinylated peptides representing each of the phospho sites, or non-phosphorylated, were incubated at 0.5 mM in 0.1% BSA and PBS for 1 hour at 37° C. after which the plates were washed. A streptavidin-HRP-conjugate (R&D Systems, Minnesota, United States) was added at 1/200 dilution in 0.05% Tween-20/1% BSA in PBS for 45 minutes in the dark at ambient temperature. After the final wash, plates were incubated with TMB (Sigma-Aldrich, Switzerland), an HRP substrate solution, and read at 405 nm using an ELISA plate reader (Tecan, Switzerland).

[6] = molecular target: T5, biotinylated non-phosphorylated TDP-43 …; test: as above
Description: as §4

[7] = molecular target: T6, biotinylated TDP-43 phospho peptide …; test: as above
Description: as §4

[8] = molecular target: T7, biotinylated TDP-43 phospho peptide …; test: as above
Description: as §4

[9] = molecular target: T8, biotinylated TDP-43 phospho peptide …; test: as above
Description: as §4

[10] = molecular target: T9, biotinylated TDP-43 phospho peptide …; test: as above
Description: as §4

[11] = molecular target: T10, biotinylated TDP-43 phospho peptide …; test: as above
Description: as §4

Binder	EC50 [1]	Kd (Peptide 28)	koff (Peptide 28)	kon (Peptide 28)	Kd (Peptide 29)	koff (Peptide 29)	kon (Peptide 29)	binding result [2]	Kd [3]	koff [3]	kon [3]	EC50 [4]	binding result [5]	binding result [6]	binding result [7]	binding result [8]	binding result [9]	binding result [10]	binding result [11]
ACI-7071-809F12-Ab1-rec2 (as described in WO2020234473) (antibody, V domains shown, also called 809F12D8) VH: QVQLKESGPGLVAPSQSLSITCTVSGFSLNRNGVQWVRQPPGKGLEWLGVIWPGGSTNCNSALMSRLSISKDNSKSQVFLKMNSLHTDDTGIYYCARVGGNYVWDYNNYAWGQGTLVTVSA VL: DVLMTQTPLSLPVSLGDQASISCRSSQNIVHSIGNTYLEWYLQKPGQSPKLLIYKVSNRFSGVPDRFSGSGSGTDFTLKISRVEAEDLGVYYCFQGSHVPYTFGGGTKLEIR	0.181 nM	4.5 nM	0.00231 s⁻¹	514000 M⁻¹ s⁻¹	7 nM	0.00343 s⁻¹	490000 M⁻¹ s⁻¹	no binding	–	–	–	–	–	–	–	–	–	–	–
ACI-7071-4665-B5-R3B-Ab2 (antibody, mouse IgG2a, V domains shown, also called 4665-B5-R3B-B8; ACI-7071-4665-B5-Ab2) VH: QVQLKQSGPELVKPGASVKLSCKASGYTFTTYDINWVKQRPGQGPEWIGWIYPRVGNTKYNEKFKDKATLTVDTSSSTAYMELHSLTSEDSAVYFCASALTYWGQGTLVTVSA VL: not shown	0.072 nM	–	–	–	–	–	–	–	0.39 nM	1.66e-05 s⁻¹	42900 M⁻¹ s⁻¹	0.181 nM	no binding (tested: peptide at 0.5 mM)	binds	no binding (tested: peptide at 0.5 mM)	no binding (tested: peptide at 0.5 mM)	no binding (tested: peptide at 0.5 mM)	no binding (tested: peptide at 0.5 mM)	no binding (tested: peptide at 0.5 mM)
ACI-8070-942.30D12-Ab1 (antibody, V domains shown, Mouse hybridoma antibody; also called 942.30D12F9; pS375/pS379 TDP-43 antibody) VH: DVQLVESGGGLVQPGGSRKLSCEASGFTFSSIGMHWVRQAPEKGLEWVAYITSGSSTIYYADTVKGRFTISRDNPKNTLFLQMTSLRSEDTAIYYCAGSGPGTDYWGQGTTLTVSS VL: DIKMTQSPSSMYASLGERVTITCKASQDINSYLSWFQQKPGKSPKTLIYRANRLVDGVPSRFSGSGSGQDYSLTISSLEYEDMGIYYCLQYDEFPLTFGAGTKLELK	–	–	–	–	–	–	–	–	–	–	–	–	no binding (tested: peptide at 0.5 mM)	no binding (tested: peptide at 0.5 mM)	no binding (tested: peptide at 0.5 mM)	no binding (tested: peptide at 0.5 mM)	no binding (tested: peptide at 0.5 mM)	no binding (tested: peptide at 0.5 mM)	no binding (tested: peptide at 0.5 mM)
